In paper PMC5571166, “Mapping the key residues of SufB and SufD essential for biosynthesis of iron-sulfur clusters” (Scientific Reports, 2017):

T1: SufB^C254A (Escherichia coli, UniProt P77522 1-495, SufB^C254A)
T1 construct: SufB of the Escherichia coli sufABCDSE operon; source: pBBR-sufAB carrying the mutation, in bacterial extract
T1 sequence: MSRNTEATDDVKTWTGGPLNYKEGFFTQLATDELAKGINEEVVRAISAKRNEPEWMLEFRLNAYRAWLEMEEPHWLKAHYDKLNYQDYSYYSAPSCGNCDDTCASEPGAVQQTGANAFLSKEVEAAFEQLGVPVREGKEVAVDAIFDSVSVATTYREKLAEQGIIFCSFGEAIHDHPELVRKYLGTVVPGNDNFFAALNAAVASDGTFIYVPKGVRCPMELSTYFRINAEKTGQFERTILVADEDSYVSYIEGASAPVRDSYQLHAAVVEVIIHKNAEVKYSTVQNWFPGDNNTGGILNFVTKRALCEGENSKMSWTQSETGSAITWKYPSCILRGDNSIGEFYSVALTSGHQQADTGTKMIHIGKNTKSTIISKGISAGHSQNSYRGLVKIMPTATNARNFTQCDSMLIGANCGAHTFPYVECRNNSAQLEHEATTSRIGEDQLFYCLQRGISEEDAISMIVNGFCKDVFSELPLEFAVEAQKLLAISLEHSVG

B1: SufD (natural protein, Escherichia coli)
chain: MAGLPNSSNALQQWHHLFEAEGTKRSPQAQQHLQQLLRTGLPTRKHENWKYTPLEGLINSQFVSIAGEISPQQRDALALTLDSVRLVFVDGRYVPALSDATEGSGYEVSINDDRQGLPDAIQAEVFLHLTESLAQSVTHIAVKRGQRPAKPLLLMHITQGVAGEEVNTAHYRHHLDLAEGAEATVIEHFVSLNDARHFTGARFTINVAANAHLQHIKLAFENPLSHHFAHNDLLLAEDATAFSHSFLLGGAVLRHNTSTQLNGENSTLRINSLAMPVKNEVCDTRTWLEHNKGFCNSRQLHKTIVSDKGRAVFNGLINVAQHAIKTDGQMTNNNLLMGKLAEVDTKPQLEIYADDVKCSHGATVGRIDDEQIFYLRSRGINQQDAQQMIIYAFAAELTEALRDEGLKQQVLARIGQRLPGGAR
notes: SufD of the Escherichia coli sufABCDSE operon; One SufD per SufBCD complex (1:2:1); also called SufD subunit of the SufBCD complex

How the values were obtained:
SufD = biological target: B1; test: SEC; SufBCD complexes co-expressed in E. coli and co-purified on Phenyl FF, Q XL and Sephacryl S-200; eluted from gel filtration at about 160 kDa; subunit composition checked by SDS-PAGE of the purified sample; details: both partners purified
SufB^C254A = biological target: T1, SufB^C254A; test: as above; details: both partners purified

binding result (SufD)	binding result (SufB^C254A)	Binder
binds	binds	SufC (natural protein, Escherichia coli, SufC of the Escherichia coli sufABCDSE operon; also called SufC subunit of the SufBCD complex) MLSIKDLHVSVEDKAILRGLSLDVHPGEVHAIMGPNGSGKSTLSATLAGREDYEVTGGTVEFKGKDLLALSPEDRAGEGIFMAFQYPVEIPGVSNQFFLQTALNAVRSYRGQETLDRFDFQDLMEEKIALLKMPEDLLTRSVNVGFSGGEKKRNDILQMAVLEPELCILDESDSGLDIDALKVVADGVNSLRDGKRSFIIVTHYQRILDYIKPDYVHVLYQGRIVKSGDFTLVKQLEEQGYGWLTEQQ
–	binds	B1
